From patent publication US20170247452A1 (MacroGenics, published 2017)

What was measured:
Experiment in all cases: cell-based or functional assay
[1] = target: T1, human CD19 on cells (CD20+ gated blood B cells; Raji/GF, HBL-2, Jeko-1 cells; CLL B cells) (human, UniProt P15391 20-556)
T1 sequence (looked up): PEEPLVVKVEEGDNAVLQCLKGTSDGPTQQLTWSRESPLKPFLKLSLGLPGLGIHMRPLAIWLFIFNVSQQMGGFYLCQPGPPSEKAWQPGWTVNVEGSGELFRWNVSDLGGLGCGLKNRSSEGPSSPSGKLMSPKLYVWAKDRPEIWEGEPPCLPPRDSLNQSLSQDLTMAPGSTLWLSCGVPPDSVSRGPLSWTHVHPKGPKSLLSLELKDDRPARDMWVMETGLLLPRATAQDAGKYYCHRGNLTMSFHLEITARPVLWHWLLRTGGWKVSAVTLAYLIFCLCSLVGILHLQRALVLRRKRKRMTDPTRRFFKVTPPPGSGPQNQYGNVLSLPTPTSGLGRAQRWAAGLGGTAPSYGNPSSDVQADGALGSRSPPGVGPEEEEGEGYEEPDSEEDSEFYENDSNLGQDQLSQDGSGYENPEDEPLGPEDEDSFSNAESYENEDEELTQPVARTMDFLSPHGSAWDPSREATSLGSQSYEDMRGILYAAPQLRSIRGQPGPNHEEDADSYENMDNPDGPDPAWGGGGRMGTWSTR

[2] = target: T2, cynomolgus monkey CD19 on CD20+ gated blood B cells (cynomolgus monkey, UniProt A0A2K5W8L9 20-557)
T2 sequence: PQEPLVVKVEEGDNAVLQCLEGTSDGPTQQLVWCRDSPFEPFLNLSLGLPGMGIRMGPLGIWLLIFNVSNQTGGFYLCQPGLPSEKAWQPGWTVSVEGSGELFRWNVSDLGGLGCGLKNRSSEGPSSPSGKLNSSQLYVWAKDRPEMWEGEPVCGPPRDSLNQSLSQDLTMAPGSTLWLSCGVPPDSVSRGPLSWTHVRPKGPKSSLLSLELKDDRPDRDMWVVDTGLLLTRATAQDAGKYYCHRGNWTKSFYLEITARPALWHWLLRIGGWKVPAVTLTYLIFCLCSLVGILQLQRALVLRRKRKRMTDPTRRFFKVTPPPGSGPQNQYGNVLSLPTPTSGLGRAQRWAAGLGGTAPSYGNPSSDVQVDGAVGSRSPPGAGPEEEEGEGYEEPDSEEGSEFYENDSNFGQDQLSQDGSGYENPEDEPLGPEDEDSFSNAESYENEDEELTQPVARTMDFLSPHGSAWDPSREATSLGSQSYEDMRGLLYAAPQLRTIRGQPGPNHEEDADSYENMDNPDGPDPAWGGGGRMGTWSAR

[3] = target: T1, human CD19 on cells (CD20+ gated blood …); remark: listed apart in the source
[4] = target: T1, human CD19 on cells (CD20+ gated blood …); remark: listed apart in the source
[5] = target: T1, human CD19 on cells (CD20+ gated blood …); remark: listed apart in the source
[6] = target: T1, human CD19 on cells (CD20+ gated blood …); remark: listed apart in the source
[7] = target: T1, human CD19 on cells (CD20+ gated blood …); remark: listed apart in the source

B1: DART-A (CD19×CD3 bi-specific monovalent Fc diabody) (bispecific antibody)
chain 1: ENVLTQSPATLSVTPGEKATITCRASQSVSYMHWYQQKPGQAPRLLIYDASNRASGVPSRFSGSGSGTDHTLTISSLEAEDAATYYCFQGSVYPFTFGQGTKLEIKGGGSGGGGEVQLVESGGGLVQPGGSLRLSCAASGFTFSTYAMNWVRQAPGKGLEWVGRIRSKYNNYATYYADSVKGRFTISRDDSKNSLYLQMNSLKTEDTAVYYCVRHGNFGNSYVSWFAYWGQGTLVTVSSASTKGEVAACEKEVAALEKEVAALEKEVAALEKGGGDKTHTCPPCPAPEAAGGPSVFLFPPKPKDTLMISRTPEVTCVVVDVSHEDPEVKFNWYVDGVEVHNAKTKPREEQYNSTYRVVSVLTVLHQDWLNGKEYKCKVSNKALPAPIEKTISKAKGQPREPQVYTLPPSREEMTKNQVSLWCLVKGFYPSDIAVEWESNGQPENNYKTTPPVLDSDGSFFLYSKLTVDKSRWQQGNVFSCSVMHEALHNHYTQKSLSLSPGK
chain 2: QAVVTQEPSLTVSPGGTVTLTCRSSTGAVTTSNYANWVQQKPGQAPRGLIGGTNKRAPWTPARFSGSLLGGKAALTITGAQAEDEADYYCALWYSNLWVFGGGTKLTVLGGGGSGGGGQVTLRESGPALVKPTQTLTLTCTFSGFSLSTSGMGVGWIRQPPGKALEWLAHIWWDDDKRYNPALKSRLTISKDTSKNQVFLTMTNMDPVDTATYYCARMELWSYYFDYWGQGTTVTVSSASTKGKVAACKEKVAALKEKVAALKEKVAALKE
chain 3: not shown
[1]
  EC50, cytotoxicity against Raji/GF target cells with cynomolgus monkey PBMCs as effector cells (E:T = 30:1): 0.013 pM
  average EC50 of redirected killing of HBL-2 cells, human T cells, E:T 10:1: 0.105 pM
  average EC50 of redirected killing of Jeko-1 cells, human T cells, E:T 10:1: 0.146 pM
  average EC50 of redirected killing of Raji/GF cells, human T cells, E:T 10:1: 0.307 pM
[2]
  EC50, autologous B cell depletion in cynomolgus monkey PBMCs, Cyno 5 (E:T = 3:1): 166 pM
  EC50, autologous B cell depletion in cynomolgus monkey PBMCs, Cyno 6 (E:T = 2:1): 859 pM
  EC50, autologous B cell depletion in cynomolgus monkey PBMCs, Cyno 7 (E:T = 3:1): 107 pM
  EC50, autologous B cell depletion in cynomolgus monkey PBMCs, Cyno 8 (E:T = 7:1): 239 pM
  mean EC50, autologous B cell depletion in cynomolgus monkey PBMCs: 343 pM
[3]
  EC50, autologous B cell depletion in human PBMCs, Human 5 (E:T = 8:1): 6.27 pM
  EC50, autologous B cell depletion in human PBMCs, Human 6 (E:T = 8:1): 2.75 pM
  EC50, autologous B cell depletion in human PBMCs, Human 7 (E:T = 5:1): 5.52 pM
  EC50, autologous B cell depletion in human PBMCs, Human 8 (E:T = 9:1): 1.84 pM
  mean EC50, autologous B cell depletion in human PBMCs: 4.2 pM
[4]
  EC50, IFN-γ production, human T cells with Raji/GF cells, donor D44284, E:T = 10:1: 2.44 pM
  EC50, IFN-γ production, human T cells with Raji/GF cells, donor D47067, E:T = 10:1: 8.58 pM
  EC50, IL-2 production, human T cells with Raji/GF cells, donor D44284, E:T = 10:1: 1.33 pM
  EC50, IL-2 production, human T cells with Raji/GF cells, donor D47067, E:T = 10:1: 11.3 pM
  EC50, TNF-α production, human T cells with Raji/GF cells, donor D44284, E:T = 10:1: 0.626 pM
  EC50, TNF-α production, human T cells with Raji/GF cells, donor D47067, E:T = 10:1: 6.79 pM
[5]
  EC50, redirected killing of Raji/GF cells, 72 hours, E:T = 1:1: 2.79 pM
  EC50, redirected killing of Raji/GF cells, 72 hours, E:T = 2.5:1: 1.54 pM
  EC50, redirected killing of Raji/GF cells, 96 hours, E:T = 1:1: 0.44 pM
  EC50, redirected killing of Raji/GF cells, 96 hours, E:T = 2.5:1: 0.422 pM
[6]
  mean EC50, IFN-γ release, human T cells with Raji/GF cells (n = 2): 5.51 pM
  mean EC50, IL-2 release, human T cells with Raji/GF cells (n = 2): 6.32 pM
  mean EC50, TNF-α release, human T cells with Raji/GF cells (n = 2): 3.71 pM
  mean EC50, cytotoxicity, HBL-2 (n = 5), CTL assay: 0.11 pM
  mean EC50, cytotoxicity, Jeko-1 (n = 3), CTL assay: 0.15 pM
  mean EC50, cytotoxicity, Raji/GF (n = 5), CTL assay: 0.31 pM
[7]
  EC50, redirected killing of Raji/GF cells, 24 hours, E:T = 5:1: 0.67 pM
  EC50, redirected killing of Raji/GF cells, 24 hours, E:T = 10:1: 0.14 pM
  EC50, redirected killing of Raji/GF cells, 48 hours, E:T = 2.5:1: 1.08 pM
  EC50, redirected killing of Raji/GF cells, 48 hours, E:T = 5:1: 0.38 pM
  EC50, redirected killing of Raji/GF cells, 48 hours, E:T = 10:1: 0.0441 pM
